Laboratory results from the DeepSol protein solubility set.

Test: soluble on expression in E. coli; label from the status in PepcDB or PDB records

Row | Sequence | soluble on expression in E. coli
1 | MSLKAVSEADIQAALKEGGTITVWAWEPTLKQVATDFEKEHPGVKVDLVNAGTNKDQYTALQNAISAKKGVPDVAQIEYYAMGQYALTKQLTDLKSFGADKLSAQFSPGPWNGVKAGSDGVYALPMDSGPMALFYNKKVFDKYDIKVPTTWAEYLDAARDLHKADPKAYITADNGDAGFATSMLWQAGSRPYTVDGTKVKIDFSDQGAKTFTETWQQLIDEKLLASVPAWTDEWYKGLGDGSIATLATGAWMPANLESGAKSASGDWRVAPMPQWKAGDKVSAENGGSALALPELGKNEALAYAFVEYANAGDGVQTRLKNGAFPATTADLQSTRFQDTAFPYFGGQKANKIFAESAADVPDDWSYLPYQVYANSVFNDTVGKAYVSGTTLAEGLESWQEASVKYDEEQGLPSRRKGIITITTDPNSSSVDKLAAALEHHHHHH | soluble
2 | MTHAPTTTPLRTAAKLLAAGAAALTLNSCAYDGIKVIVINMFQGEAQPFIDRYDLKEKVYIAGLSPDAPNLLCNYDGICQVTTGMGYANAAATLSALLYRSKLDLTQTYFVIAGIAGIDPGQGTVGSAAWARYAVDYGLSHEIDAREMPAAWPYGYFGIGTKGPGEKPPMNYRTEVFRLNEALLQRAYALSKPVTLEDSPEAIAFRKHYAYAPANQPPAVIQCDVASADTWWAGRNLGQRARDWTKTMTDGKGTYCTTAQEDNATLEVLARGARAGKVDFSRVALLRTGSDFDRPYDGQSAADGLVNYAQQGGFVPATHNLVNAAKPLLDDIVLRWPQWAQGVPANLEHHHHHH | not soluble
3 | MLKAMEHPAYSQLRPVTPSAGVVLCPNPGYSSLEGTNSWVVRAEGDRCSIVIDPGPADEGHLNVLHGKAETVGLVLLTHRHHDHADGAERFRQLTGAAIRAQQAPYCHGGDVLRDGEIIAIDGVTPQLEVVFTPGHTSDSVCFFVWSGVPHESNLEGIITGDTIAGRHTTMISETDGDLGQYLNTLALLEKRGKGIALLPGHGPDGDDVASFAHWYIERRMQRLEQIKEAIAQRGADVPIKELIDAVYDDVDPVLRGAAEQSTRVALRYLAQQQ | not soluble
4 | SPEFMVKAKSWTLKKHFQGKPTQSDFELKTVELPPLKNGEVLLEALFLSVDPYMRIASKRLKEGAVMMGQQVARVVESKNSAFPAGSIVLAQSGWTTHFISDGKGLEKLLTEWPDKLPLSLALGTIGMPGLTAYFGLLEVCGVKGGETVLVSAAAGAVGSVVGQIAKLKGCKVVGAAGSDEKIAYLKQIGFDAAFNYKTVNSLEEALKKASPDGYDCYFDNVGGEFLNTVLSQMKDFGKIAICGAISVYNRMDQLPPGPSPESIIYKQLRIEGFIVYRWQGDVREKALRDLMKWVLEGKIQYHEHVTKGFENMPAAFIEMLNGANLGKAVVTA | soluble
5 | MRVKAMASFSPFDVTLWYSTAAPAPLTEPLSGRIQADVCIVGAGYTGLTTALELAKAGVDVVLLERQEIGFGGSGRNAGHCTPTFTHYSLPELRKMLGETWAERLIERQTRANDRVSHMIRDYRINCEWVQNGYVMGAPHKGAIEEIRRKVETYNAVGAKTRLLGRDEVAAITGSPRFHGGWLHEEAGHLNPLAYARGLGGAVIQERGRIFTGSSVTGCERNATGGWKVRTEHGEVIASKVIFTTGAYTVGGWPKLDQTFKIQRVFVAATQILSEETRRTVLPRNTTIHDGRGDIYVYKYNAEGRIVASMFPMGRRGRDIVYTRQVMSDRLKWLHPQISADIRWDYFWFGELDMQYRTVPRLYDLSPGVVALTGLSGRGVPTGSMLGSILSEWALGKPENELALKVEPLKSAPFYMSFAPAMTLRYYRMRDNIATRLAGMELPPHALEHHHHHH | not soluble
6 | MDSSEVVKVKQASIPAPGSILSQPNTEQSPAIVLPFQFEATTFGTAETAAQVSLQTADPITKLTAPYRHAQIVECKAILTPTDLAVSNPLTVYLAWVPANSPATPTQILRVYGGQSFVLGGAISAAKTIEVPLNLDSVNRMLKDSVTYTDTPKLLAYSRAPTNPSKIPTASIQISGRIRLSKPMLIAN | soluble
7 | MGSDKIHHHHHHMKIGVIQASTRTDLNQLLFEAVKQAAGNQHEIVNFGVFPQETENYSYVEVAIMISLLIETGAIDFMVSGCSSGQGMMMACNSLPGLQAGFIQTPQDAFLFGRINNGNVASLSLGLNFGWAGELNLQYALNELFHGEFGIGYPPEVAERKREEAQLLLTLNDITKKSFLEIIDQLDKALLFKILKRKDLTAYLFDYGSNSLLLERLQFFRN | not soluble
8 | MSTPTAADRAKALERKNEGNVFVKEKHFLKAIEKYTEAIDLDSTQSIYFSNRAFAHFKVDNFQSALNDCDEAIKLDPKNIKAYHRRALSCMALLEFKKARKDLNVLLKAKPNDPAATKALLTCDRFIREERFRKAIGGAENEAKISLCQTLNLSSFDANADLANYEGPKLEFEQLYDDKNAFKGAKIKNMSQEFISKMVNDLFLKGKYLPKKYVAAIISHADTLFRQEPSMVELENNSTPDVKISVCGDTHGQFYDVLNLFRKFGKVGPKHTYLFNGDFVDRGSWSCEVALLFYCLKILHPNNFFLNRGNHESDNMNKIYGFEDECKYKYSQRIFNMFAQSFESLPLATLINNDYLVMHGGLPSDPSATLSDFKNIDRFAQPPRDGAFMELLWADPQEANGMGPSQRGLGHAFGPDITDRFLRNNKLRKIFRSHELRMGGVQFEQKGKLMTVFSAPNYCDSQGNLGGVIHVVPGHGILQAGRNDDQNLIIETFEAVEHPDIKPMAYSNGGFGL | soluble
9 | MSIYLTAMKNYLEQQNSLNSSKPKALILVAGATGGAQEGFQALERLRESYEIIVVASQAALDLYGEENLKSLTGTAKIYQGKEFKIYDFLKVVTIVFLPVVSSNLVGKLAHGIYDEPLASLIFHAKLAGKPVIGVVDGALPDGDGFKSRGFTNPPPGLVKLINENIEKLRAQEIYLYKGKTILEKLSPYLGPQTAETSVVSSKTGVTLNKRVITREDLLELANQTITVSQKTIITDLAREYAVQNNIKINFAE | not soluble
10 | MGSDKIHHHHHHMATLLLEDGTIESNLDEIARELAPLGVYIKHYDPGTSILFPHLLIQDALTDKEKCHIVDLHNSVFEFIQQENGYLWCDLLNVHPGSPNLQTLIATYAKYHTHTAPEALYVLAGEMIFGFVKPDGSQVQLLVQSQDYLHIPSGVEHWCSLTASLSFKAVRYFTAADGWVPNYTGTQLNDSLNK | not soluble
11 | MNHPNAPFQPPMDIDAVWQHSLIRVTDAFALPPIVLRVDDAIIGTLGNFSVSTGKAKAKKTFNVCALVAAALVNGQVLEYQASFPESKRNILYFDTEQSPYHCQLVLQRILALAELPLDQQPEHLLFSHLRSIASPEERRAIIRYAIYHTPNVGLVVIDGIRDLMHDINNSAEATNLMGDLMQWTGERNIHIQTVLHLNKGDDNARGHIGTELNNKTESVLLITKDNSDADRSVVSASIIRSKPFPPFAFRLTEVDNICLRELDTDFTAKDAQPFSYQELSGEEHRTALREAFGQACELGYGDLLKRLSSSYLGVSGRPYGQTKLKELLRFLVNKRMLVKASRGRYQFNPDFHY | not soluble
12 | MGSDKIHHHHHHVPMGKLIASLVDIVKKNKFVDDTQKALFDNFENTKRVNVYIDDLDRGWEGRKEDIRRISALLNAVRDISNEMDNVHFMISLRSDVYYLVRTSDESTDKISGSVIWYTWDRHQILALLAKRVETFFGRDISENSLMGMHQSKIAQYLDPIMTQHFEGKGKWENAPIYRILMSLIRNRPRDLVMICTLAARNARKKGRSKILTEDLQSIFEDYSLERIQDIENEFKSELPEIRRLLFALKPSAKKSSKFSDLYVYTTDQVEAKIQSASANAPFYFSNNNKQATSEELHYFLYKINFLTARRKNKDDVLVRKTFEENKYLTGRFVDFGFGWEVHPAYRWALEPDDSESIYARLDLLDFE | not soluble
13 | MNIGIIGTGNMGNILIDAFLETRAVKPSCLTIINRTPAKAYHIKEKYPSVHIAKTIPEVIEQSQLIFICVKPIDIYPILKKYAEHFSDETCLVSITSPISPSQLETLVPCHVARIIPSITNRALSGASLFTFGDNCSEEWQQKLLRLFKNISTPLVIEEDITRVSSDIASCGPAFFSYLLQCFINAAVDKTNITHEEATTLVSEMVVGMGKLLEKEIFTLPTLQEKVCVKGGVTGEGIRVLEEHVGDMFHKLIERTHEKFDEDLECVDQQFNKHT | not soluble
14 | MIKQRTLKQSIKVTGVGLHSGEKVTLTLRPAMPNTGVVYYRTDLNPAVAFPADPNSVRDTMLCTALINEQGVRISTVEHLNAALAGLGIDNIIIEVDAPEIPIMDGSASPFIYLLLDAGIEEQNAAKKFIRIKQYVRVEDGDKWAEFKPYNGFRLDFTIDFDHPAIGKDVRNYEMNFSAQAFVHQISRARTFGFMKDIEYLQSQGLVLGGSLDNAIVLDDYRILNEDGLRFKDELVRHKMLDAIGDLYMAGYNIIGDFKAYKSGHGLNNKLLRAVLANQEAWEFVTFEDKAQVPQGYVAPVQVLILEHHHHHH | soluble
15 | MSHVFQIHSSQYKSPSQIPQGKVLVVGGGNSGMQIAVEFAKTHEVTMSISHPLTFLPLHFFRKSIFNWLEKLGLLYAEVSTKRGKWFQKRKDPIFGFEGKELIRNGAIQLQEKVVSASENNIMFQNGETYSAESIIWSTGFIQNYNWIEIEKVVNENGLPNHIKGISPVRGLYYIGLEHHHHHH | soluble
16 | MVYFYESKPTEYSTPYQIVMGKDKFENDLLIKWSYRELNYVWFHADKYSSGHVYLKLRPNEKTIDDIPQEVICDCLQLCKSESIQGNKMPQCTILITPWHNLRKNRYMNPGEVSFKSLRQCRKMECGARDNKILNRLAKTRVELFNNVEATLNEAKKTKNGDFFVNYIESNRSNLIEEEKLRKVAKKNQKKKNKQSKDEVTDDMQLEV | not soluble
17 | MASGTASTKIVIAGGFGSGKTTFVGAVSEIMPLRTEAMVTDASAGVDMLEATPDKRSTTVAMDFGRITLGEDLVLYLFGTPGQRRFWFMWDDLVRGAIGAIVLVDCRRLQDSFAAVDFFEHRNLPFLIAINEFDSAPRYPVSAVRDALTLPAHIPVINVDARNRRSATDALIAVSEYALATLSPLEHHHHHH | not soluble
18 | MSLKVAVIGAGAMGGLYGAYLSRKNDVYMIDINEKVVKSINENGLIIYERENNKKEKFLVSAFTDSSNLGPMDLVIIFVKNLYTTSALKNNLNLFSDSTLVITLQNGAGNDRDLEKFIKKENILIGTTEHSCSILETGEVSHNQEGITNIGMLVYNDNIIKRISDEFKACSLKTEVYQNIQEIIWSKLFINMALNSTTAILNCKVGYLEKSKDASEIVQSILSEAVDVAIADGTFFNKKEVIDKVQKCIREDLPNAITSMNQDVSNKRLTEIDHINGAVANLAKLYKIPTPYNDCIIHIIHALEGLYNEGHHHHHH | soluble
19 | MASISSLGVGSGLDLSSILDSLTAAQKATLTPISNQQSSFTAKLSAYGTLKSALTTFQTANTALSKADLFSATSTTSSTTAFSATTAGNAIAGKYTISVTHLAQAQTLTTRTTRDDTKTAIATSDSKLTIQQGGDKDPISIDISAANSSLSGIRDAINNAKAGVSASIINVGNGEYRLSVTSNDTGLDNAMTLSVSGDDALQSFMGYDASASSNGMEVSVAAQNAQLTVNNVAIENSSNTISDALENITLNLNDVTTGNQTLTITQDTSKAQTAIKDWVNAYNSLIDTFSSLTKYTAVDAGADSQNSSNGALLGDSTLRTIQTQLKSMLSNTVSSSNYKTLAQIGITTDPSDGKLELDADKLTAALKKDASGVGALIVGDGKKTGITTTIGSNLTSWLSTTGIIKAATDGVSKTLNKLTKDYNAASDRIDAQVARYKEQFTQLDVLMTSLNSTSSYLTQQFENNSNSK | not soluble
20 | MKYDLTTQDSTIKRNNSINDKDFEKLVMDLQPLIIRRIKTFGFNHYDLEDLYQEILIRMYRSVQTFDFSGEQPFTNYVQCLITSVKYDYLRKYLATNKRMDNLINEYRVTYPCAIKRFDVENNYLNKLAIKELICQFKYLSAFEKDVMYLMCEQYKPREIAQLMHVKEKVIYNAIQRCKNKIKRYFKMI | not soluble
